From patent US5846764, “Materials and methods relating to proteins that interact with casein kinase I” (ICOS Corporation, dated 1998) come the findings set out here.

The target of test [1] is lexA::HRR25 fusion (pBTM116::HRR25) (E. coli; S. cerevisiae) (UniProt P0A7C2). The experiment in a line: yeast two-hybrid (lexA bait, GAL4 prey), liquid β-galactosidase assay.
Test [2] deals with lexA::HRR25 non-catalytic domain fragment (pBTM116::Non-catalytic) (E. coli; S. cerevisiae) (UniProt P0A7C2). Described as above.
Test [3] addresses lexA::HRR25 K→R fusion (pBTM116::HRR25K→R) (E. coli; S. cerevisiae) (UniProt P0A7C2). The test is described as above.
In test [4] the target is T1, lexA DNA binding domain alone (pBTM116 vector) (E. coli, UniProt P0A7C2). The experiment in a line: yeast two-hybrid (lexA bait, GAL4 activation domain prey), liquid β-galactosidase assay, normalized to vector alone.
Test [5] concerns the target lexA::HRR25 non-catalytic domain fragment (pBTM116::Non-catalytic) (E. coli; S. cerevisiae, UniProt P0A7C2). The description is as above.
Test [6] concerns the target T1, lexA DNA binding domain alone (pBTM116 …). The experiment in a line: yeast two-hybrid, liquid β-galactosidase assay. The protocol:
To construct pairwise combinations between pBTM116-based plasmids and pGAD-based plasmids, yeast strains of opposite mating types were replica plated in a crossed pattern on YEPD medium (Bio101) and were allowed to mate for 18 hours. Diploid cells were selected by a second replica plating onto SD-leucine, -tryptophan medium to select for cells that contained both pBTM116-type and pGAD-type plasmids. The isolated diploids were grown in liquid SD-leucine, -tryptophan medium to a cell density of 2×10^7 cells/ml and the level of interaction of the kinase and interacting protein, as determined by beta-galactosidase activity, was determined from cells that were lysed by adding 3 drops of chloroform and 50 µl of 0.1 % SDS to 2×10^6 cells suspended in 0.1 ml of Z buffer and subsequently adding 0.2 ml of the chromogenic substrate o-nitrophenyl-β-D-galactoside. β-galactosidase assays were terminated by adding 0.5 ml of 1M Na_2CO_3 and activity was measured by reading absorbance at 420 nm using a Milton Roy spectrophotometer (Rochester, N.Y.). In this assay, the degree of protein/protein interaction is directly proportional to the level of β-galactosidase activity. […] Values were normalized to vector alone controls.

Test [7] concerns the target lexA::NUF1 fusion (pBTM116::NUF1) (E. coli; S. cerevisiae) (UniProt P0A7C2). The experiment in a line: yeast two-hybrid (lexA bait, GAL4 activation domain prey), liquid β-galactosidase assay, normalized to vector alone.
Test [8] concerns the target lexA::HRR25 fusion (pBTM116::HRR25) (E. coli; S. cerevisiae) (UniProt P0A7C2). The test is described as above.
In test [9] the target is lexA::HRR25 K→R fusion (pBTM116::HRR25K→R) (E. coli; S. cerevisiae) (UniProt P0A7C2). Described as above.
The target of test [10] is lexA::HRR25 catalytic domain fragment (pBTM116::Kinase domain) (E. coli; S. cerevisiae) (UniProt P0A7C2). Described as above.
Test [11] has as its target lexA::HRR25 non-catalytic domain fragment (pBTM116::Non-catalytic) (E. coli; S. cerevisiae) (UniProt P0A7C2). The description is as above.

Bounds are passed on as bounds.

lexA::HRR25 catalytic domain fragment (pBTM116::Kinase domain) (E. coli; S. cerevisiae), sequence (P0A7C2 1-202, tags or fused parts left off): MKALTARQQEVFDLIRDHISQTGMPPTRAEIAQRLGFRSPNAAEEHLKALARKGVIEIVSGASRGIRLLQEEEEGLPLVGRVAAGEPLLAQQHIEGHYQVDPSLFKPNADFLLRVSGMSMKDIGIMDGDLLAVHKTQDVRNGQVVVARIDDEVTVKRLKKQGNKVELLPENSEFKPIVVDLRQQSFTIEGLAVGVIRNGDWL

For “GAL4::CIN8 fusion (pGAD::CIN8) (from UniProt P27895)”, the units of β-galactosidase activity in test [1] is 5 units; in test [2], under 0.1 units; in [3] it was 28 units.

With “GAL4::KAR3 fusion (pGAD::KAR3) (from UniProt P17119)”, the units of β-galactosidase activity in [1] was 15 units; in [2] it was 60 units; in test [3] it was 75 units.

On to “GAL4::KIP1 fusion (pGAD::KIP1) (from UniProt P28742)”, for which the units of β-galactosidase activity came out at 16 units in [1], 70 units in test [2] and 55 units in [3].

For “GAL4::KIP2 fusion (pGAD::KIP2) (from UniProt P28743)”, the units of β-galactosidase activity in test [1] is 10 units; in [2], under 0.1 units; in [3], 16 units.

B1: GAL4 activation domain::TIH4 library clone (pGAD::TIH4) (protein)
chain: RRMISELKNRSNIGEPLTKSSNESTYKDIKATGNDGDPNLALMRAENRVLKYKLENCEKLLDKDVVDLQDSEIMEIVEMLPFEVGTLLETKFQGLESQIRQYRKYTQKLEDKIMALEKSGHTAMSLTGCDGTEVIELQKMLERKDKMIEALQSAKRLRDRALKPLINTQQSPHPVVDNDK
Regarding B1, the units of β-galactosidase activity is 70 units in [1] and 66 units in [3].

B2: GAL4 activation domain::TIH2 library clone (pGAD::TIH2) (other)
chain: RSSSNLSLDSLSKMSGSGNNNTSNNQLFSTLMNGINANSMMNSPMNNTINNNSSNNNNSGNIILNQPSLSAQHTSSSLYQTNVNNQAQMSTERFYAPLPSTSTLPLPPQQLDFNDPDTLEIYSQLLLFKDREKYYYELAYPMGISASHKRIINVLCSYLGLVEVYDPRFIIIRRKILDHANLQSHLQQQGQMTSAHPLQPNSTGGSMNRSQSYTSLLQAHAAAAANSISNQAVNNSSNSNTINSNNGNGNNVIINNNSASSTPKISSQGQFSMQPTLTSPKMNIHHSSQYNSADQPQQPQPQTQQNVQSAAQQQQSFLRQQATLTPSSRIPSGYSANHYQINSVNPLLRNSQISPPNSQIPINSQTLSQAQPPAQSQTQQRVPVAYQNASLSSQQLYNLNGPSSANSQSQLLPQHTNGSVHSNFSYQSYHDESMLSAHNLNSADLIYKSLSHSGLDDGLEQGLNRSLSGLDLQNQNKKNLW
As to B2, the “relative β-galactosidase activity” value in [4] was under 5; in test [5], under 5; in [7], under 5; in test [8], 650; in test [9], 150; in test [10] it was 160. In addition, the binding result in test [6] was “no binding (tested: <5)”.

B3: GAL4 activation domain::TIH3 library clone (pGAD::TIH3) (other)
chain: IKPMVESNCKNGQISATKDLVKLVEEFVEKYVELSKEKADTLKPLPSVTSFGSPRKVAAPELSMVQPESKPEAEAEISEIGSDRWRFNWVNIIILVLLVLNLLYLMKLNKKMDKLTNLMTHKDEVVAHATLLDIPAQVQWSRPRRGDVL
In the case of B3, the “relative β-galactosidase activity” value in [4] was under 5; in [7], 10; in [8], 100; in test [11], under 5; in [9], 30; in test [10], 130. The binding result in test [6] is recorded as “no binding (tested: <5)”.

B4: GAL4 activation domain::TIH1 library clone (pGAD::TIH1) (other)
chain: DQLKSYAEEQLKLLLGITKEEQIDPGRELLNMLHTAVQANSNNNAVSNGQVPSSQELQHLKEQSGEHNQQKDQQSSFSSQQQPSIFPSLSEPFANNKNVIPPTMPMANVFMSNPQLFATMNGQPFAPFPFMLPLTNNSNSANPIPTPVPPNFNAPPNPMAFGVPNMHNLSGPAVSQPFSLPPAPLPRDSGYSSSSPGQLLDILNSKKPDSNVQSSKKPKLKILQRGTDLNSLKQNNNDETAHSNSQALLDLLKKPTSSQKIHASKPDTSFLPNDSVSGIQDAEYEDFESSSDEEVETARDERNSLNVDIGVNVMPSEKDSRRSQKEKPRNDASKTNLNASAESNSVEWGAG
As to B4, the “relative β-galactosidase activity” value in [4] was under 5; in test [7] it was under 5; in test [8], 850; in test [11], under 5; in test [9], 100; in test [10] it was 820. Further, in test [6], the binding result is reported as “no binding (tested: <5)”.
